We go through 15 sequences from the supplement of paper PMC10724198.

± gives the standard deviation of the averaged measurements.

Data set [1] concerns Saccharomyces cerevisiae. The data set can be described thus: protein stability index of tFT-peptide fusion (C-terminal peptide) (PSI (0-1 scale)); higher = more stable (slower turnover). Here is the method: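 MPS profiling in S. cerevisiae of the tFT-X12 degron library: putative degron peptides plus stable controls, 12 aa, fused to the C-terminus of a sfGFP-mCherry timer. Cells are FACS-sorted into 8 mCherry/sfGFP bins and deep-sequenced. PSI runs from 0 (unstable) to 1 (stable). Backgrounds are wild type, das1Δ and doa10Δ at 30 °C, and wild type, das1Δ, cdc34-1 and cdc53-1 at 37 °C; 2-3 technical replicates each.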

Data set [2] has as its system Saccharomyces cerevisiae. The data set is described as above. The following applies: genetic background: wild type; temperature: 30 C.
Where [3] appears, read: genetic background: cdc34-1, temperature: 37 C.
Where [4] appears, read: genetic background: cdc53-1, temperature: 37 C.
[5] abbreviates: genetic background: das1 deletion, temperature: 30 C.
The mark [6] stands for this setting: genetic background: das1 deletion, temperature: 37 C.
Where [7] appears, read: genetic background: doa10 deletion, temperature: 30 C.
Setting [8] is: genetic background: wild type, temperature: 30 C.
The mark [9] stands for this setting: genetic background: wild type, temperature: 37 C.
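Further: PSI is a weighted mean of sequencing reads over stability bins, variants kept only with over 10 reads, mCherry proximal and sfGFP distal, peptide attached via GGGS linker.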

On to ACCLLFSFAFTV, for which the protein stability index in the data set with Saccharomyces cerevisiae [1] (setting [3]) is 0.452 ± 0.026; in the data set with Saccharomyces cerevisiae [1] (setting [4]), 0.5103 ± 0.0014; in the data set with Saccharomyces cerevisiae [1] (setting [5]), 0.32 ± 0.04; in the data set on Saccharomyces cerevisiae [1] (setting [6]), 0.517 ± 0.0016; in the data set on Saccharomyces cerevisiae [1] (setting [7]), 0.187 ± 0.0034; in the data set on Saccharomyces cerevisiae [1] (setting [8]) it was 0.213 ± 0.029. For the same sequence, the protein stability index is 0.4184 ± 0.0027 in the data set on Saccharomyces cerevisiae [1] (setting [9]) and 0.301 ± 0.028 in the data set on Saccharomyces cerevisiae [2].
As to AFFALGSFFFLL, the protein stability index in the data set on Saccharomyces cerevisiae [1] (setting [3]) came out at 0.631 ± 0.042; in the data set on Saccharomyces cerevisiae [1] (setting [4]), 0.685 ± 0.0071; with Saccharomyces cerevisiae [1] (setting [5]) it was 0.586 ± 0.039; in the data set with Saccharomyces cerevisiae [1] (setting [6]), 0.7296 ± 0.0054; in the data set on Saccharomyces cerevisiae [1] (setting [7]), 0.265 ± 0.0044; in the data set with Saccharomyces cerevisiae [1] (setting [8]) it was 0.289 ± 0.03. The protein stability index in the data set with Saccharomyces cerevisiae [1] (setting [9]) stood at 0.519 ± 0.034; with Saccharomyces cerevisiae [2] it was 0.0874 ± 0.015.
In the case of AFRCVVLCWFLK, the protein stability index with Saccharomyces cerevisiae [1] (setting [3]) worked out at 0.31 ± 0.031; in the data set on Saccharomyces cerevisiae [1] (setting [4]) it was 0.434 ± 0.0094; in the data set on Saccharomyces cerevisiae [1] (setting [5]), 0.292 ± 0.038; in the data set on Saccharomyces cerevisiae [1] (setting [6]) it was 0.498 ± 0.0098; with Saccharomyces cerevisiae [1] (setting [7]) it was 0.268 ± 0.029; in the data set with Saccharomyces cerevisiae [1] (setting [8]), 0.281 ± 0.014. The protein stability index was 0.413 ± 0.011 in the data set on Saccharomyces cerevisiae [1] (setting [9]) and 0.415 ± 0.023 in the data set with Saccharomyces cerevisiae [2].
AFVSVHRLRLAS: the protein stability index in the data set on Saccharomyces cerevisiae [1] (setting [3]) is 0.642 ± 0.016; in the data set with Saccharomyces cerevisiae [1] (setting [4]), 0.724 ± 0.014; with Saccharomyces cerevisiae [1] (setting [5]), 0.605 ± 0.017; in the data set with Saccharomyces cerevisiae [1] (setting [6]), 0.734 ± 0.01; in the data set on Saccharomyces cerevisiae [1] (setting [7]) it was 0.174 ± 0.0083; in the data set with Saccharomyces cerevisiae [1] (setting [8]), 0.183 ± 0.037. The protein stability index was found to be 0.374 ± 0.018 with Saccharomyces cerevisiae [1] (setting [9]) and 0.4053 ± 0.0023 in the data set on Saccharomyces cerevisiae [2].
Take AGLAPCFLLFVC: the protein stability index with Saccharomyces cerevisiae [1] (setting [3]) was found to be 0.261 ± 0.027; in the data set on Saccharomyces cerevisiae [1] (setting [4]), 0.343 ± 0.019; in the data set on Saccharomyces cerevisiae [1] (setting [5]), 0.3 ± 0.033; in the data set with Saccharomyces cerevisiae [1] (setting [6]), 0.44 ± 0.0063; with Saccharomyces cerevisiae [1] (setting [7]), 0.0908 ± 0.024; with Saccharomyces cerevisiae [1] (setting [8]), 0.0981 ± 0.021. The protein stability index with Saccharomyces cerevisiae [1] (setting [9]) was 0.0938 ± 0.026; with Saccharomyces cerevisiae [2] it was 0.133 ± 0.019.
In the case of AGMIKLRKKKVL, the protein stability index in the data set with Saccharomyces cerevisiae [1] (setting [3]) came out at 0.6487 ± 0.003; with Saccharomyces cerevisiae [1] (setting [4]), 0.7395 ± 0.003; with Saccharomyces cerevisiae [1] (setting [5]) it was 0.634 ± 0.021; in the data set with Saccharomyces cerevisiae [1] (setting [6]), 0.7208 ± 0.0012; in the data set with Saccharomyces cerevisiae [1] (setting [7]), 0.208 ± 0.026; with Saccharomyces cerevisiae [1] (setting [8]), 0.248 ± 0.041. In addition, the protein stability index came out at 0.452 ± 0.0093 in the data set with Saccharomyces cerevisiae [1] (setting [9]) and 0.417 ± 0.042 in the data set with Saccharomyces cerevisiae [2].
On to AGSPPSRPPWLP, for which the protein stability index in the data set with Saccharomyces cerevisiae [1] (setting [3]) was 0.675 ± 0.047; with Saccharomyces cerevisiae [1] (setting [4]), 0.7369 ± 0.0062; in the data set on Saccharomyces cerevisiae [1] (setting [5]), 0.679 ± 0.051; in the data set on Saccharomyces cerevisiae [1] (setting [6]) it was 0.759 ± 0.024; in the data set with Saccharomyces cerevisiae [1] (setting [7]), 0.679 ± 0.034; in the data set on Saccharomyces cerevisiae [1] (setting [8]), 0.678 ± 0.021. Besides, the protein stability index was 0.719 ± 0.042 in the data set with Saccharomyces cerevisiae [1] (setting [9]) and 0.506 ± 0.018 with Saccharomyces cerevisiae [2].
AGVRLIFLFWGF: the protein stability index was determined as 0.521 ± 0.05 in the data set with Saccharomyces cerevisiae [1] (setting [3]); 0.608 ± 0.027 in the data set with Saccharomyces cerevisiae [1] (setting [4]); 0.43 ± 0.037 in the data set with Saccharomyces cerevisiae [1] (setting [5]); 0.6496 ± 0.0056 with Saccharomyces cerevisiae [1] (setting [6]); 0.444 ± 0.028 with Saccharomyces cerevisiae [1] (setting [7]); 0.407 ± 0.054 with Saccharomyces cerevisiae [1] (setting [8]). The protein stability index was 0.621 ± 0.036 in the data set on Saccharomyces cerevisiae [1] (setting [9]) and 0.4945 ± 0.0016 in the data set on Saccharomyces cerevisiae [2].
With AHSFKCVGVAVR, the protein stability index was determined as 0.4628 ± 0.00085 in the data set on Saccharomyces cerevisiae [1] (setting [3]); 0.504 ± 0.01 in the data set on Saccharomyces cerevisiae [1] (setting [4]); 0.332 ± 0.024 in the data set with Saccharomyces cerevisiae [1] (setting [5]); 0.5469 ± 0.0017 in the data set with Saccharomyces cerevisiae [1] (setting [6]); 0.309 ± 0.004 in the data set with Saccharomyces cerevisiae [1] (setting [7]); 0.347 ± 0.032 in the data set on Saccharomyces cerevisiae [1] (setting [8]). Moreover, the protein stability index with Saccharomyces cerevisiae [1] (setting [9]) came out at 0.544 ± 0.0072; with Saccharomyces cerevisiae [2], 0.3246 ± 0.0014.
With AIREVQYSFFPS, the protein stability index was determined as 0.681 ± 0.041 in the data set with Saccharomyces cerevisiae [1] (setting [3]); 0.755 ± 0.018 with Saccharomyces cerevisiae [1] (setting [4]); 0.652 ± 0.0074 in the data set on Saccharomyces cerevisiae [1] (setting [5]); 0.7527 ± 0.0042 in the data set on Saccharomyces cerevisiae [1] (setting [6]); 0.6445 ± 0.0018 in the data set on Saccharomyces cerevisiae [1] (setting [7]); 0.66 ± 0.012 in the data set on Saccharomyces cerevisiae [1] (setting [8]). Besides, the values for the protein stability index in the data set with Saccharomyces cerevisiae [1] (setting [9]) and with Saccharomyces cerevisiae [2] were 0.723 ± 0.016 and 0.715 ± 0.021, respectively.
Regarding ALERCFIRRVTV, the protein stability index with Saccharomyces cerevisiae [1] (setting [3]) was 0.513 ± 0.013; in the data set on Saccharomyces cerevisiae [1] (setting [4]) it was 0.582 ± 0.024; in the data set with Saccharomyces cerevisiae [1] (setting [5]), 0.415 ± 0.017; with Saccharomyces cerevisiae [1] (setting [6]) it was 0.593 ± 0.021; in the data set with Saccharomyces cerevisiae [1] (setting [7]), 0.322 ± 0.024; with Saccharomyces cerevisiae [1] (setting [8]), 0.394 ± 0.016. Moreover, the protein stability index in the data set with Saccharomyces cerevisiae [1] (setting [9]) worked out at 0.532 ± 0.01; with Saccharomyces cerevisiae [2] it was 0.477 ± 0.069.
ALVYVPACRLVV: the protein stability index in the data set on Saccharomyces cerevisiae [1] (setting [3]) worked out at 0.59 ± 0.049; in the data set on Saccharomyces cerevisiae [1] (setting [4]), 0.624 ± 0.022; in the data set on Saccharomyces cerevisiae [1] (setting [5]) it was 0.492 ± 0.021; in the data set on Saccharomyces cerevisiae [1] (setting [6]), 0.634 ± 0.024; in the data set on Saccharomyces cerevisiae [1] (setting [7]), 0.256 ± 0.011; with Saccharomyces cerevisiae [1] (setting [8]), 0.303 ± 0.018. Further, the protein stability index amounted to 0.481 ± 0.018 with Saccharomyces cerevisiae [1] (setting [9]) and 0.4017 ± 0.0028 in the data set on Saccharomyces cerevisiae [2].
Consider APCRVPVLGLVF, for which the protein stability index in the data set with Saccharomyces cerevisiae [1] (setting [3]) was found to be 0.249 ± 0.026; in the data set with Saccharomyces cerevisiae [1] (setting [4]), 0.265 ± 0.0055; in the data set on Saccharomyces cerevisiae [1] (setting [5]), 0.235 ± 0.036; in the data set with Saccharomyces cerevisiae [1] (setting [6]), 0.364 ± 0.018; in the data set on Saccharomyces cerevisiae [1] (setting [7]), 0.204 ± 0.016; in the data set with Saccharomyces cerevisiae [1] (setting [8]) it was 0.257 ± 0.013. Besides, the protein stability index in the data set on Saccharomyces cerevisiae [1] (setting [9]) is 0.344 ± 0.025; in the data set on Saccharomyces cerevisiae [2], 0.327 ± 0.034.
Regarding ARRRYEVLAVLV, the protein stability index in the data set on Saccharomyces cerevisiae [1] (setting [3]) was 0.477 ± 0.024; in the data set with Saccharomyces cerevisiae [1] (setting [4]), 0.522 ± 0.025; with Saccharomyces cerevisiae [1] (setting [5]) it was 0.459 ± 0.041; with Saccharomyces cerevisiae [1] (setting [6]), 0.5983 ± 0.0026; with Saccharomyces cerevisiae [1] (setting [7]), 0.135 ± 0.0081; with Saccharomyces cerevisiae [1] (setting [8]), 0.149 ± 0.024. Besides, the protein stability index with Saccharomyces cerevisiae [1] (setting [9]) is 0.149 ± 0.021; in the data set with Saccharomyces cerevisiae [2] it was 0.227 ± 0.0072.
For the sequence ASTGPLAAIRVY, the protein stability index with Saccharomyces cerevisiae [1] (setting [3]) came out at 0.519 ± 0.0057; with Saccharomyces cerevisiae [1] (setting [4]), 0.622 ± 0.023; in the data set with Saccharomyces cerevisiae [1] (setting [5]), 0.396 ± 0.028; with Saccharomyces cerevisiae [1] (setting [6]), 0.5994 ± 0.0011; in the data set with Saccharomyces cerevisiae [1] (setting [7]) it was 0.377 ± 0.035; with Saccharomyces cerevisiae [1] (setting [8]), 0.41 ± 0.019. The protein stability index in the data set with Saccharomyces cerevisiae [1] (setting [9]) turned out to be 0.588 ± 0.017; with Saccharomyces cerevisiae [2], 0.495 ± 0.013.
